1 molecule from patent US20260055179A1 (ALENTIS THERAPEUTICS, published 2026) can be followed below.

The target of the test is T1, human Claudin-1 (CLDN1) (human, UniProt O95832 1-211).
T1 construct: whole, on cells; Transmembrane tight-junction protein, endogenously expressed on primary human cholangiocytes in the flow cytometry assay
T1 sequence (looked up): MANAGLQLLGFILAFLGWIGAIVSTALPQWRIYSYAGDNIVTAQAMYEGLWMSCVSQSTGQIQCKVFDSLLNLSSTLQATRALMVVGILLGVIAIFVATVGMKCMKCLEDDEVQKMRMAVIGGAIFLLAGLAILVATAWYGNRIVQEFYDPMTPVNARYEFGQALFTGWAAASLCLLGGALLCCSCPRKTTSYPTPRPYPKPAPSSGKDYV
The experiment in a line: flow cytometry on primary human cholangiocytes (HBEpiC) after 10 ng/ml TNFalpha for 24 h; anti-human AF647 secondary antibody. The protocol:
Primary human cholangiocytes were purchased from Innoprot, Bizkaia, Spain (Human Biliary Epithelial Cells, HBEpiC, ref. P10654; Batch #21614) and cultured on poly-1-lysine-coated surfaces according to manufacturer's instructions. Following stimulation, with 10 ng/ml TNFα for 24 hours, cells were harvested for assessment of CLDN1 expression by flow cytometry using anti-CLDN1 mAb H3L3 (Colpitts et al. 2018) and an anti-human AF647-conjugated secondary antibody.
(In general: In flow cytometry, cells or beads pass a laser one at a time.)

B1: anti-CLDN1 mAb H3L3 (antibody, human IgG1, kappa, V domains shown)
VH: QVQLVESGGGVVQPGRSLRLSCLGSGFSFSSYGMNWVRQAPGKGLEWVASISPSGSYFYYADSVKGRFTISRDNSKNTLYLQMTSLRAEDTAIYYCARLPGFNPPFDHWGQGTLVTVSS
VL: DIQMTQSPSSLSASVGDRVTITCKASQNVGGNVDWYQWKPGKAPKLLIYGASNRYTGVPDRFRGSGSGTDFTLTISSLQPEDVATYYCLQYKNNPWTFGGGTKVEIKR
notes: Humanized anti-Claudin-1 monoclonal antibody; also called CLDN1 H3L3; CLDN1-specific H3L3 mAb
Turning to B1, the binding result is listed as “binds”.
